The values that follow come from patent publication US20190263864A1 (GENOIMMUNE THERAPEUTICS, published 2019).

The chains are these.
B1: wild-type polypeptide (depicted in FILDGSYSV, SEQ ID NO:7) (peptide)
peptide: FILDGSYSV
B2: mutant polypeptide's variant (depicted in FMLDGLYSL, SEQ ID NO:5) (peptide)
peptide: FMLDGLYSL
B3: mutant polypeptide's variant (depicted in FLLDGLYSV, SEQ ID NO:4) (peptide)
peptide: FLLDGLYSV
B4: mutant polypeptide's variant (depicted in FILDGLYSL, SEQ ID NO:2) (peptide)
peptide: FILDGLYSL
B5: mutant polypeptide's variant (depicted in FLLDGLYSL, SEQ ID NO:6) (peptide)
peptide: FLLDGLYSL
B6: mutant polypeptide's variant (depicted in FMLDGLYSV, SEQ ID NO:3) (peptide)
peptide: FMLDGLYSV
B7: mutant polypeptide (depicted in FILDGLYSV, SEQ ID NO:1) (peptide)
peptide: FILDGLYSV

The test addresses T1, HLA-A0201 on the surface of T2 cells (human).
T1 construct: MHC class I molecule on TAP-deficient T2 cells
As to the kind of experiment: T2 cell peptide loading, 100 µM peptide, anti-HLA-A*02:01 FITC flow cytometry. (In general: In flow cytometry, cells or beads pass a laser one at a time.)
Procedure: After centrifugation at 200 g for 5 minutes for cell collection, the collected cells were washed with phosphate buffer saline (PBS) buffer twice, before incubated with anti-HLA-A*02:01 FITC monoclonal antibody at 4° C. for 30 minutes. The mean fluorescence intensity of cells was then detected and analyzed by the flow cytometry (BD FACSJazz™) and its software.
Turning to B1, the “FI (fluorescence index)” value was found to be 1.59 and the Mean fluorescence intensity was 589.
In the case of B2, the “FI (fluorescence index)” value is 2.14 and the Mean fluorescence intensity came out at 714.
The matching figures for B3: 2.04 and 692.
The like results for B4 were, in that order, 1.99 and 681.
The like results for B5 were, in that order, 1.69 and 612.
As for B6, the “FI (fluorescence index)” value amounted to 2.34 and the Mean fluorescence intensity came out at 759.
The like results for B7 were, in that order, 1.92 and 664.
